Data: US20240092844

System: KLF6-CDK200 RTF 8 phosphate-contact mutant 8 phosphate-contacting Arg to Gln (Homo sapiens)
Test: cell_activity
Details: on-target activity reduced 12%; only CDKN1C upregulated in RNA-seq

## TTGAAACTGAAAATACTACATTATGCTA (double strand) [CDKN1C target 200]
  binding signal (% of unmodified CDK200): 88
